{"source": "patent US8796201B2", "about": "(The Board of Trustees of the Leland Stanford Junior …, priority 2002, dated 2014)", "molecules": {"B1": {"name": "MX PEP: novel recombinant prolyl endopeptidase from Myxococcus xanthus (Genbank AF127082, SEQ ID NO:47) (protein, listed as Myxococcus xanthus)", "chain": "MSYPATRAEQVVDTLHGVQVADPYRWLEDEKAPEVQTWMTAQNAHAREALAKFPGREALAARFKELFYTDSVSTPSRRNGRFFYVRTHKDKEKAILYWRQGESGQEKVLLDPNGWSKDGTVSLGTWAVSWDGKKVAFAQKPNAADEAVLHVIDVDSGEWSKVDVIEGGKYATPKWTPDSKGFYYEWLPTDPSIKVDERPGYTTIRYHTLGTEPSKDTVVHERTGDPTTFLQSDLSRDGKYLFVYILRGWSENDVYWKRPGEKDFRLLVKGVGAKYEVHAWKDRFYVLTDEGAPRQRVFEVDPAKPARASWKEIVPEDSSASLLSVSIVGGHLSLEYLKDATSEVRVATLKGKPVRTVQLPGVGAASNLMGLEDLDDAYYVFTSFTTPRQIYKTSVSTGKSELWAKVDVPMNPEQYQVEQVFYASKDGTKVPMFVVHRKDLKRDGNAPTLLYGYGGFNVNMEANFRSSILPWLDAGGVYAVANLRGGGEYGKAWHDAGRLDKKQNVFDDFHAAAEYLVQQKYTQPKRLAIYGGSNGGLLVGAAMTQRPELYGAVVCAVPLLDMVRYHLFGSGRTWIPEYGTAEKPEDFKTLHAYSPYHHVRPDVRYPALLMMAADHDDRVDPMHARKFVAAVQNSPGNPATALLRIEANAGHGGADQVAKAIESSVDLYSFLFQVLDVQGAQGGVAAQGR"}, "B2": {"name": "FM PEP: recombinant prolyl endopeptidase from Flavobacterium meningosepticum (Genbank D10980) (protein)", "chain": "QNSNVLKYPETKKVSHTDTYFGTQVSDPYRWLEDDRAEDTKAWVQQEVKFTQDYLAQIPFRDQLKKQLMDIWNYEKISAPFKKGKYTYFSKNDGLQAQSVLYRKDAAGKTEVFLDPNKFSEKGTTSLASVSFNKKGTLVAYSISEGGSDWNKIIILDAETKKQLDETLLDVKFSGISWLGDEGFFYSSYDKPKEGSVLSGMTDKHKVYFHKLGTKQSQDELIIGGDKFPRRYIGAYVTDDQRYLVVSAANATNGNELYIKDLKNKTDFIPIITGFDSNVNVADTDGDTLYLFTDKDAPNKRLVKTTIQNPKAETWKDVIAETSEPLEINTGGGYFFATYMKDAIDQVKQYDKNGKLVRAIKLPGSGNASGFGGEKTEKDLYYSFTNYITPPTIFKYNVTTGNSEVYQKPKVKFNPENYVSEQVFYTSSDGTKIPMMISYKKGLKKDGKNPTILYSYGGFNISLQPAFSVVNAIWMENGGIYAVPNIRGGGEYGKKWHDAGTKMQKKNVFNDFIAAGEYLQKNGYTSKEYMALSGRSNGGLLVGATMTMRPDLAKVAFPGVGVLDMLRYNKFTAGAGWAYDYGTAEDSKEMFEYLKSYSPVHNVKAGTCYPSTMVITSDHDDRVVPAHSFKFGSELQAKQSCKNPILIRIETNAGHGAGRSTEQVVAENADLLSFALYEMGIKSLK"}}, "key": {"PQPQLPYPQPQLP [1]": {"tested_on": "PQPQLPYPQPQLP", "assay": "Competitive assay of PEP specificity for gliadin peptide versus Suc-Ala-Pro-pNA", "assay_type": "biochemical, wheat", "settings": "PQPQLPYPQPQLP vs Suc-Ala-Pro-pNA", "protocol": "Substrate Specificity. In addition to the reference substrates above, enzyme specificity was also evaluated using two immunogenic peptides derived from the sequence of γ-gliadin proteins in gluten. Both peptides were synthesized using solid-phase peptide synthesis. The peptide (SEQ ID NO:4) […] contains the immunodominant γII-epitope, and is resistant to proteolysis by pepsin or any pancreatic enzyme. PEP specificity toward this substrate was assessed in a competitive assay in which 100 μM (SEQ ID NO:4) […] and 100 μM Suc-Ala-Pro-pNA were mixed and reacted with 0.02 μM PEP at 25° C. The initial velocity of Suc-Ala-Pro-pNA cleavage was measured spectrophotometrically, whereas the initial velocity of (SEQ ID NO:4) […] hydrolysis was determined via HPLC. The apparent specificity, kcat/KM, for the hydrolysis of (SEQ ID NO:4) […] could be determined based on the known kcat/KM of the enzyme for Suc-Ala-Pro-pNA and the observed reaction rates of the two substrates. […]\nThe kcat/KM values of each PEP were determined in an assay mixture containing (SEQ ID NO:4) […] as well as Suc-Ala-Pro-pNA as a competing substrate. The rates of disappearance of both substrates were determined by independent detection methods. The initial rate of disappearance of (SEQ ID NO:4) […] was measured by HPLC, whereas the rate of consumption of Suc-Ala-Pro-pNA was measured spectrophotometrically. […]"}, "PQPQLPYPQPQLP [2]": {"tested_on": "PQPQLPYPQPQLP", "assay": "Site specificity of […] hydrolysis, LC/MS/MS", "assay_type": "biochemical, wheat", "settings": "100 μM peptide, 0.1 μM enzyme, early time points", "protocol": "FIG. 10. Site specificity of […] hydrolysis by individual PEPs. HPLC-UV (215 nm) traces are shown for each reaction mixture. Initial cleavage fragments (100 μM (SEQ ID NO:4) […], 0.1 μM enzyme, t=5 min) were identified by tandem mass spectrometry. The starting material (SEQ ID NO:4) […] and the cleavage fragments A: (SEQ ID NO:4, aa. 1-8) […], B: (SEQ ID NO:4, aa 7-13) YPQPQLP, C: (SEQ ID NO:12, aa 1-6) PQPQLP, D: (SEQ ID NO:4, aa 2-6) QPQLP) are indicated in the traces.\nThe decrease in substrate concentration as well as concomitant intermediate and product build-up were monitored with HPLC analysis. RP-HPLC was performed on a system consisting of Beckman or Rainin Dynamax SD-200, a Varian 340 UV detector set at 215 nm and 280 nm. Solvent A was H2O with 0.1% TFA and solvent B was acetonitrile with 0.1% TFA; gradient used: 0-5% B in 0-15 min, 5-30% B in 15-30′, 30-100% B in 30-35 min, 100% B for 5′; flow 1 ml/min; separation was performed on a 4.6×150 mm reverse phase C-18 column (Vydac, Hesperia, Calif., USA). Samples were centrifuged for 10 min at 13,400 g, prior to injection of 10-100 μl. […] Thus, multiple peptides accumulate during the course of the reaction, some of which are secondary PEP substrates in themselves.\nTo analyze the regiospecificity of hydrolysis of (SEQ ID NO:4) […] by individual PEPs, samples corresponding to early time points were further analyzed by LC/MS/MS. […]"}, "[3]": {"assay": "pH stability (activity retained after acid exposure)", "assay_type": "in vitro ADME", "settings": "after 10 min of incubation at pH values between 1.6 and 3.9", "protocol": "pH Stability. The ability to retain enzyme activity after exposure to acidic environments was determined. […] The recovered enzyme activity was measured spectrophotometrically and compared with non-acid treated controls under identical conditions. PEP Stability. Although orally administered therapeutic proteins can be formulated to protect them from the acidic and proteolytic environment of the stomach, intrinsic acid stability of a PEP is likely to be a desirable characteristic in its use as a therapeutic agent for Celiac Sprue. […] Thus, although all PEPs appear to be moderately acid-stable, the MX PEP is most versatile. Since therapeutic efficacy would require a PEP to act upon gluten in conjunction with pancreatic proteases that are secreted into the duodenum, the resistance of FM PEP and MX PEP toward both gastric and pancreatic enzymes was evaluated. For this we pre-incubated the enzymes with physiological quantities of either pepsin (at pH 2) or a cocktail comprising of trypsin, chymotrypsin, elastase and carboxypeptidase A (at pH 6.5)."}}, "data": [{"molecule": "B1", "values": [{"measurement": "higher specificity for the gluten peptide as compared to the chromogenic substrate", "setting": "PQPQLPYPQPQLP [1]", "value": 5, "unit": "fold"}, {"measurement": "preferred site of cleavage in PQPQLPYPQPQLP", "setting": "PQPQLPYPQPQLP [2]", "value": "PQPQLP|YPQPQLP"}, {"measurement": "original activity retained", "setting": "[3]", "value": "70-90%"}]}, {"molecule": "B2", "values": [{"measurement": "higher specificity for the gluten peptide as compared to the chromogenic substrate", "setting": "PQPQLPYPQPQLP [1]", "value": 5, "unit": "fold"}, {"measurement": "preferred site of cleavage in PQPQLPYPQPQLP", "setting": "PQPQLPYPQPQLP [2]", "value": "PQPQLPPYP|QPQLP"}, {"measurement": "original activity retained", "setting": "[3]", "value": "50-70%"}]}]}
